Results on 1 molecule are retold here after article PMC11336944, “CWF19L2 is Essential for Male Fertility and Spermatogenesis by Regulating Alternative Splicing” (Advanced Science, 2024).

The target of this test is T1, PRPF8 (mouse (endogenous in testis), UniProt Q99PV0 1-2335).
T1 construct: PRPF8 (pre-mRNA-processing-splicing factor 8), mouse, endogenous in testis and sorted germ cells; also called spliceosome skeleton marker PRPF8; source: endogenous, PD10 WT mouse testis extract; endogenous, lysate of sorted germ cells from Cwf19l2‐SKO and control mice
As to the kind of experiment: co-IP; PRPF8 antibody immunoprecipitation from sorted germ cells of Cwf19l2-SKO mice (CWF19L2 deleted in germ cells), immunoblotting, bands quantified against control mice; IgG as negative control. The following applies: partners not purified.

B1: PRPF43 (natural protein, mouse (endogenous in testis), UniProt O35286 1-795, looked up)
chain: MSKRHRLDLGEDYPSGKKRAGTDGKDRERDRDREDRSKDRDRERDRGDREREREKEKEKELRASTNAMLISAGLPPLKASHSAHSTHSAHSTHSTHSAHSTHTGHTGHTSLPQCINPFTNLPHTPRYYDILKKRLQLPVWEYKDRFTDILVRHQSFVLVGETGSGKTTQIPQWCVEYMRSLPGPKRGVACTQPRRVAAMSVAQRVADEMDVMLGQEVGYSIRFEDCSSAKTILKYMTDGMLLREAMNDPLLERYGVIILDEAHERTLATDILMGVLKEVVRQRSDLKVIVMSATLDAGKFQIYFDNCPLLTIPGRTHPVEIFYTPEPERDYLEAAIRTVIQIHMCEEEEGDLLLFLTGQEEIDEACKRIKREVDDLGPEVGDIKIIPLYSTLPPQQQQRIFEPPPPKKQNGAIGRKVVVSTNIAETSLTIDGVVFVIDPGFAKQKVYNPRIRVESLLVTAISKASAQQRAGRAGRTRPGKCFRLYTEKAYKTEMQDNTYPEILRSNLGSVVLQLKKLGIDDLVHFDFMDPPAPETLMRALELLNYLAALNDDGDLTELGSMMAEFPLDPQLAKMVIASCDYNCSNEVLSITAMLSVPQCFVRPTEAKKAADEAKMRFAHIDGDHLTLLNVYHAFKQNHESVQWCYDNFINYRSLMSADNVRQQLSRIMDRFNLPRRSTDFTSRDYYINIRKALVTGYFMQVAHLERTGHYLTVKDNQVVQLHPSTVLDHKPEWVLYNEFVLTTKNYIRTCTDIKPEWLVKIAPQYYDMSNFPQCEAKRQLDRIIAKLQSKEYSQY
notes: PRPF43 / PRP43 as printed, mouse, endogenous in testis and sorted germ cells; also called PRP43; ILS complex marker PRPF43; source: endogenous, PD10 WT mouse testis extract; endogenous, lysate of sorted germ cells from Cwf19l2‐SKO and control mice
Consider B1, for which the “fold PRPF43 in the PRPF8 co-IP, control over Cwf19l2-SKO, normalised to PRPF8” value worked out at 1.5 times.
